# Patent US20110059095A1 (Regeneron, published 2011)
# Where no end group is shown, it is not given here. The star is where a group is joined. Biotin = O=C1N[C@H]2[C@H](CS[C@H]2CCCCC(=O)*)N1
# T1: Peptide G (rat PAR-2), N-terminal biotinylated (Rat (Rattus norvegicus), N-terminal biotin via G4S linker)
# T1 construct: also called Peptide G N-Term
# T1 peptide: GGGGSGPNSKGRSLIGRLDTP
# T2: Peptide E (mouse PAR-2), N-terminal biotinylated (Mouse (Mus musculus), N-terminal biotin via G4S linker)
# T2 construct: also called Peptide E N-Term
# T2 peptide: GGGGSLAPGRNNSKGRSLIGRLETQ
# T3: Peptide K (human PAR-1), unbiotinylated (Human)
# T3 peptide: ATNATLDPRSFLLRNPND
# T4: Peptide M (human PAR-4), unbiotinylated (Human)
# T4 peptide: ESGSTGGGDDSTPSILPAP
# T5: Peptide A (human PAR-2), unbiotinylated (Human)
# T5 construct: also called Peptide A No Biotin
# T5 peptide: GTNRSSKGRSLIGKVDGT
# T6: Peptide L (human PAR-3), unbiotinylated (Human)
# T6 peptide: DTNNLAKPTLPIKTFRGA
# T7: Peptide C (human PAR-2), N-terminal biotinylated (Human)
# T7 construct: also called Peptide C N-Term
# T7 peptide: Biotin-GGGGSSLIGKV
# T8: Peptide H (rabbit PAR-2) (Rabbit (Oryctolagus cuniculus))
# T8 peptide: GTNKTSKGRSLIGRNTGS
# T9: Peptide G (rat PAR-2), unbiotinylated (Rat (Rattus norvegicus))
# T9 construct: also called Peptide G No Biotin
# T9 peptide: GPNSKGRSLIGRLDTP
# T10: Peptide I (dog PAR-2) (Dog (Canis familiaris))
# T10 peptide: GTNRTSKGRSLIGKTDSS
# T11: Peptide E (mouse PAR-2), unbiotinylated (Mouse (Mus musculus))
# T11 construct: also called Peptide E No Biotin
# T11 peptide: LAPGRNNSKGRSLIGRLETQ
# T12: Peptide G (rat PAR-2), C-terminal biotinylated (Rat (Rattus norvegicus), C-terminal biotin via G4S linker)
# T12 construct: also called Peptide G C-Term
# T12 peptide: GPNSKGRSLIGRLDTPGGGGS
# T13: C-terminal biotinylated human PAR-2 peptide SEQ ID NO:871 (wild-type) (human, not fully specified; C-terminal biotin (K-B))
# T13 construct: also called WT peptide
# T13 peptide: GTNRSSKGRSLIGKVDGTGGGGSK
# T14: C-terminal biotinylated human PAR-2 peptide SEQ ID NO:878 (Lys-41 to Ala) (human, not fully specified; C-terminal biotin (K-B))
# T14 construct: alanine-scan mutant
# T14 peptide: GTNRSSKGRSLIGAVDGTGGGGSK
# Experiments:
# [1] = target: T1, Peptide G (rat PAR-2), N-terminal …; assay: SPR, peptide immobilized
# [2] = target: T2, Peptide E (mouse PAR-2), N-terminal …; assay: SPR, peptide immobilized
# [3] = target: T3, Peptide K (human PAR-1), unbiotinylated; assay: SPR, antibody captured
# [4] = target: T4, Peptide M (human PAR-4), unbiotinylated; assay: SPR, antibody captured
# [5] = target: T5, Peptide A (human PAR-2), unbiotinylated; assay: SPR, antibody captured
# [6] = target: T6, Peptide L (human PAR-3), unbiotinylated; assay: SPR, antibody captured
# [7] = target: T7, Peptide C (human PAR-2), N-terminal …; assay: SPR, peptide immobilized
# Peptide H (rabbit PAR-2) = target: T8, Peptide H (rabbit PAR-2); assay: SPR, antibody captured
# Protocol: (§1) Equilibrium dissociation constants (KD values) for antigen binding to selected purified PAR-2 antibodies were determined by surface kinetics using a real-time surface plasmon resonance biosensor assay. Antibody was captured on either a rabbit anti-mouse IgG polyclonal antibody (GE Healthcare, Piscataway, N.J.) surface or a goat anti-human IgG polyclonal antibody (Jackson Immuno Research Lab, West Grove, Pa.) surface created through direct amine chemical coupling to a BIACORE™ CM5 sensor chip to form a captured antibody surface. […] Antigen-antibody binding and dissociation were monitored in real time at room temperature. Kinetic analysis was performed to calculate KD and half-life of antigen/antibody complex dissociation (Table 10). For those antibodies where no T_{1/2} value is shown, steady state analysis was used to calculate the KD value. NB: no binding observed under current experimental conditions. ND: not determined.
# [8] = target: T9, Peptide G (rat PAR-2), unbiotinylated; assay: SPR, antibody captured
# Protocol: as §1
# Peptide I (dog PAR-2) = target: T10, Peptide I (dog PAR-2); assay: SPR, antibody captured
# Protocol: as §1
# [9] = target: T11, Peptide E (mouse PAR-2), unbiotinylated; assay: peptide ELISA titration; ELISA titration, bivalent IgG on peptide-coated plate
# Protocol: (§2) Anti-PAR-2 antibodies were tested for their ability to bind to the PAR-2 peptides. Various PAR-2 Peptides (Table 3) were coated onto 96-well plates at a concentration of 2 μg/ml and incubated overnight followed by blocking in a suitable blocking agent for one hour. […] Purified anti-PAR-2 antibodies were added to the plate coated with PAR-2 peptides to a final concentration ranging from 0.2 to 2.0 μg/ml and incubated for one hour at room temperature. Detection of bound antibodies was determined with Horse-Radish Peroxidase (HRP) conjugated anti-mouse or human IgG (Jackson Immuno Research Lab, West Grove, Pa.) and developed by standard colorimetric response using tetramethylbenzidine (TMB) substrate. Absorbance was read at OD₄₅₀ for 0.1 second.
# (§3) In another experiment, selected anti-PAR-2 antibodies cloned onto human IgG4 were tested for binding to unbiotinylated and biotinylated forms of PAR-2 peptides (Peptides A, E, F and G; as described above). […] Absorbance values at 450 nm were analyzed using a sigmoidal dose-response model in GraphPad Prism (GraphPad Software, Inc., La Jolla, Calif.) and EC₅₀ values were reported (Table 9). EC₅₀ values are defined as the antibody concentration required to achieve 50% maximal binding to PAR-2 peptide.
# [10] = target: T9, Peptide G (rat PAR-2), unbiotinylated; assay: peptide ELISA titration
# Protocol: as §2, §3
# [11] = target: T1, Peptide G (rat PAR-2), N-terminal …; assay: peptide ELISA titration
# Protocol: as §2, §3
# [12] = target: T12, Peptide G (rat PAR-2), C-terminal …; assay: peptide ELISA titration
# Protocol: as §2, §3
# [13] = target: T2, Peptide E (mouse PAR-2), N-terminal …; assay: peptide ELISA titration
# Protocol: as §2, §3
# [14] = target: T13, C-terminal biotinylated human PAR-2 …; assay: BLI Exp1
# Protocol: (§4) In order to more particularly identify the amino acids of PAR-2 with which the PAR-2 antibodies interact, an alanine scanning study was carried out using peptides comprising the activating PAR-2 protease cleavage site.
# (§5) The ability of each peptide mutant to bind to PAR-2 antibodies was measured using biolayer interferometry (Octet Red; ForteBio). Each peptide (2.5 μg/ml) was captured on streptavidin coated biosensor tips (Octet SA sensor) for 10 seconds. To measure binding and dissociation between each peptide and PAR-2 antibody, the peptide-coated biosensors were contacted with 200 nM solutions of PAR-2 antibodies for 5 minutes (binding) followed by transfer to buffer with no antibody for 10 min (dissociation). […] The results are expressed as percent binding and percent T_{1/2} relative to WT peptide (Tables 24-28).
# [15] = target: T14, C-terminal biotinylated human PAR-2 …; assay: BLI Exp1
# Protocol: as §4, §5
# full length human PAR-2 = full length human PAR-2 (human, UniProt P55085 26-397); assay: cell-based or functional assay
# Sequence of full length human PAR-2 (P55085 26-397 G138A limits assumed): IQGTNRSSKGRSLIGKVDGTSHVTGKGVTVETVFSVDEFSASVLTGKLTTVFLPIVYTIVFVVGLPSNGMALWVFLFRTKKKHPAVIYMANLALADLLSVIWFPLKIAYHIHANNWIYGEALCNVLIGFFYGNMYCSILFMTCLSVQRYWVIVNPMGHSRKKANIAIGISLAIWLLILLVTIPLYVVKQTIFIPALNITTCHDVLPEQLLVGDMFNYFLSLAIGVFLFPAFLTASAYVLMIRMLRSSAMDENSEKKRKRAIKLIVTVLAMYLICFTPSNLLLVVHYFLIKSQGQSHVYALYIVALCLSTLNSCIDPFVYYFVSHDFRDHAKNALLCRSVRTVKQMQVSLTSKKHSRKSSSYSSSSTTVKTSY
Kd [1] [nM],T1/2 [1] [s],Kd [2] [nM],binding result [3],binding result [4],Kd [5] [nM],T1/2 [5] [s],binding result [6],binding result [7],Kd [8] [nM],T1/2 [8] [s],EC50 [9] [nM],EC50 [10] [nM],EC50 [11] [nM],EC50 [12] [nM],EC50 [13] [nM],binding result (Peptide H (rabbit PAR-2)),Binder,also measured
1.49,780,1.68,no binding,no binding,37.1,22.2,no binding,no binding,530,4.2,0.019,0.012,0.015,0.63,0.014,–,"H4H583P (antibody, human IgG4, V domains shown, also called H1H583P variable regions) VH: QVQLVESGGGVVQPGMSLRLSCTASGFTFRRYGMHWVRQAPGKGLEWVAVIWYDGSNKYYADSVKGRFTITRDNSKNTLYLQMNSLRAEDTAIYFCASEITIGDWFDPRGQGTLVTVSS VL: AIQMTQSPSSLSASVGDRVTITCRASQGIRNDLGWFQQKPGKVPKLLIYAASTLHSGVPSRFSGSGFGTDFTLTISSLQPEDFATYYCLQDFNYPLTFGGGTKVEIK",T1/2 [2]: 660 s; Kd (Peptide H (rabbit PAR-2)): 189 nM; T1/2 (Peptide H (rabbit PAR-2)): 10.2 s; Kd (Peptide I (dog PAR-2)): 320 nM; T1/2 (Peptide I (dog PAR-2)): 9.6 s
–,–,–,no binding,no binding,–,–,no binding,no binding,–,–,–,–,–,–,–,no binding,"H4H588N (antibody, human IgG4, V domains shown, also called H2M588N variable regions) VH: EVQLLESGGGLVQPGGSLRLSCAASGFTFSSYAMTWVRQAPGKGLYWVSAISGGRGSAYYADSVKGRFTISRDNSKNTLYLQMNSLRAEDTAVYYCAKEGDSGYDLAYWGRGTLVTVSS VL: DIQMTQSPSSLSASVGDRVTITCRARQGISNNLAWLQQKPGKAPKSLIYAASSLQSGIPSKFSGSGSGTYFTLTISSLQPEDFATYYCQQYKSSPLTFGGGTKVEIK","% Rel Binding [14]: 100%; % Rel T1/2 [14]: 100%; % Rel Binding [15]: 217%; % Rel T1/2 [15]: 108%; IC50, calcium mobilization FLIPR, 100 nM Trypsin (full length human PAR-2): 29.5 nM; binding result (Peptide I (dog PAR-2)): no binding"
1.39,900,> 100,no binding,no binding,22,43.8,no binding,no binding,246,7.8,2.15,0.013,0.012,0.015,0.511,no binding,"H4H584P (antibody, human IgG4, V domains shown, also called H1H584P variable regions) VH: QVQLVESGGGVVQPGRSLRLSCVASGFTFSRYGMHWVRQAPGKGLEWVVVISYDGINKYYADSVKGRFTISRDNSKNTVYLQMNSLRAEDTAVYYCAKGDFWSGYFDYWGQGTLVTVSS VL: DIVMTQTPLSSPVTLGQPASISCRSSQSLVHSDGNTYLSWLHQRPGQPPRLLIYKISNRFSGVPDRFSGSGAGTDFTLQISRVEAEDVGIYYCMQATQFPTFGGGTKVEIK",–
